Results published in patent publication US20230203469A1.

Assays:
[1] = target: recombinant VWF (full-length, multimeric rVWF) (UniProt P04275); test: cell-based or functional assay
[2] = target: von Willebrand factor (VWF), substrate of the in vitro cleavage of Table 1 (UniProt P04275); test: cell-based or functional assay
FRETS-VWF73 substrate = FRETS-VWF73 substrate (UniProt P04275); test: cell-based or functional assay
[3] = target: recombinant VWF (full-length, multimeric rVWF), P04275
[4] = target: T1, FRETS-VWF73 substrate, P04275
T1 chain: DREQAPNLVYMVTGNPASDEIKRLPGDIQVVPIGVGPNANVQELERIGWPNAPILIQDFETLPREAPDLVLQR

Molecule: rADAMTS13 batches composed of a mixture of wildtype rADAMTS13 and Q97R variant
- cleavage of multimeric rVWF [%]; Sample 1, 59 % Q97R [1]: 58%
- cleavage of multimeric rVWF [%]; Sample 2, 64 % Q97R [1]: 52%
- cleavage of multimeric rVWF [%]; Sample 3, 59 % Q97R [1]: 51%
- cleavage of multimeric rVWF [%]; Sample 4, 56 % Q97R [1]: 60%
- cleavage of multimeric rVWF [%]; Sample 5, 55 % Q97R [1]: 52%
- cleavage of multimeric rVWF [%]; Sample 6, 64 % Q97R [1]: 57%
- cleavage of multimeric rVWF [%]; Sample 7, 66 % Q97R [1]: 62%
- cleavage of multimeric rVWF [%]; Sample 9, 67 % Q97R [1]: 62%
- cleavage of multimeric rVWF [%]; Sample 10, 67 % Q97R [1]: 60%
- cleavage of multimeric rVWF [%]; Sample 11, 60 % Q97R [1]: 61%
- cleavage of multimeric rVWF [%]; Sample 12, 60 % Q97R [1]: 59%
- cleavage of multimeric rVWF [%]; Sample 13, 71 % Q97R [1]: 60%
- cleavage of multimeric rVWF [%]; Sample 14, 59 % Q97R [1]: 55%
- cleavage of multimeric rVWF [%]; Sample 15, 52 % Q97R [1]: 59%
- cleavage of multimeric rVWF [%]; Sample 16, 57 % Q97R [1]: 66%
- cleavage of multimeric rVWF [%]; Sample 17, 61 % Q97R [1]: 58%
- cleavage of multimeric rVWF [%]; Sample 18, 63 % Q97R [1]: 55%
- cleavage of multimeric rVWF [%]; Sample 19, 54 % Q97R [1]: 78%
- cleavage of multimeric rVWF [%]; Sample 20, 64 % Q97R [1]: 78%
- cleavage of multimeric rVWF [%]; Sample 21, 64 % Q97R [1]: 75%
- cleavage of multimeric rVWF [%]; Sample 22, 66 % Q97R [1]: 65%
- cleavage of multimeric rVWF [%]; Sample 23, 61 % Q97R [1]: 66%
- cleavage of multimeric rVWF [%]; Sample 24, 62 % Q97R [1]: 63%
- cleavage of multimeric rVWF [%]; Sample 25, 61 % Q97R [1]: 63%
- cleavage of multimeric rVWF [%]; Sample 26, 61 % Q97R [1]: 67%
- cleavage of multimeric rVWF [%]; Sample 27, 59 % Q97R [1]: 67%
- cleavage of multimeric rVWF [%]; Sample 28, 60 % Q97R [1]: 67%
- cleavage of multimeric rVWF [%]; Sample 29, 55 % Q97R [1]: 68%
- cleavage of multimeric rVWF [%]; Sample 30, 60 % Q97R [1]: 67%
- cleavage of multimeric rVWF [%]; Sample 31, 64 % Q97R [1]: 71%
- cleavage of multimeric rVWF [%]; Sample 32, 60 % Q97R [1]: 62%
- cleavage of multimeric rVWF [%]; Sample 33, 65 % Q97R [1]: 78%
- cleavage of multimeric rVWF [%]; Sample 34, 61 % Q97R [1]: 65%
- cleavage of multimeric rVWF [%]; Sample 35, 72 % Q97R [1]: 66%
- IU VWF RCo/ml left; ADAMTS13 0.1 U/ml, 0 h (IU VWF RCo/ml) [2]: 0.72
- IU VWF RCo/ml left; ADAMTS13 0.1 U/ml, 15 seconds (IU VWF RCo/ml) [2]: 0.33
- IU VWF RCo/ml left; ADAMTS13 0.1 U/ml, 30 seconds (IU VWF RCo/ml) [2]: 0.34
- IU VWF RCo/ml left; ADAMTS13 0.1 U/ml, 1 minute (IU VWF RCo/ml) [2]: 0.3
- IU VWF RCo/ml left; ADAMTS13 0.1 U/ml, 2 minutes (IU VWF RCo/ml) [2]: 0.24
- IU VWF RCo/ml left; ADAMTS13 0.1 U/ml, 5 minutes (IU VWF RCo/ml) [2]: < 0.17
- IU VWF RCo/ml left; ADAMTS13 0.5 U/ml, 0 h (IU VWF RCo/ml) [2]: 0.78
- IU VWF RCo/ml left; ADAMTS13 0.5 U/ml, 15 seconds (IU VWF RCo/ml) [2]: < 0.17
- IU VWF RCo/ml left; ADAMTS13 0.5 U/ml, 30 seconds (IU VWF RCo/ml) [2]: < 0.17
- IU VWF RCo/ml left; ADAMTS13 0.5 U/ml, 1 minute (IU VWF RCo/ml) [2]: < 0.17
- IU VWF RCo/ml left; ADAMTS13 0.5 U/ml, 2 minutes (IU VWF RCo/ml) [2]: < 0.17
- IU VWF RCo/ml left; ADAMTS13 0.5 U/ml, 5 minutes (IU VWF RCo/ml) [2]: < 0.17
- IU VWF RCo/ml left; ADAMTS13 1.0 U/ml, 0 h (IU VWF RCo/ml) [2]: 0.56
- IU VWF RCo/ml left; ADAMTS13 1.0 U/ml, 15 seconds (IU VWF RCo/ml) [2]: < 0.17
- IU VWF RCo/ml left; ADAMTS13 1.0 U/ml, 30 seconds (IU VWF RCo/ml) [2]: < 0.17
- IU VWF RCo/ml left; ADAMTS13 1.0 U/ml, 1 minute (IU VWF RCo/ml) [2]: < 0.17
- IU VWF RCo/ml left; ADAMTS13 1.0 U/ml, 2 minutes (IU VWF RCo/ml) [2]: < 0.17
- IU VWF RCo/ml left; ADAMTS13 1.0 U/ml, 5 minutes (IU VWF RCo/ml) [2]: < 0.17
- specific activity U/mg (UV); Sample 1, 59 % Q97R (FRETS-VWF73 substrate): 1640 U/mg (UV)
- specific activity U/mg (UV); Sample 2, 64 % Q97R (FRETS-VWF73 substrate): 1580 U/mg (UV)
- specific activity U/mg (UV); Sample 3, 59 % Q97R (FRETS-VWF73 substrate): 1400 U/mg (UV)
- specific activity U/mg (UV); Sample 4, 56 % Q97R (FRETS-VWF73 substrate): 1460 U/mg (UV)
- specific activity U/mg (UV); Sample 5, 55 % Q97R (FRETS-VWF73 substrate): 1360 U/mg (UV)
- specific activity U/mg (UV); Sample 6, 64 % Q97R (FRETS-VWF73 substrate): 1470 U/mg (UV)
- specific activity U/mg (UV); Sample 7, 66 % Q97R (FRETS-VWF73 substrate): 2040 U/mg (UV)
- specific activity U/mg (UV); Sample 8, 70 % Q97R (FRETS-VWF73 substrate): 1610 U/mg (UV)
- specific activity U/mg (UV); Sample 9, 67 % Q97R (FRETS-VWF73 substrate): 1480 U/mg (UV)
- specific activity U/mg (UV); Sample 10, 67 % Q97R (FRETS-VWF73 substrate): 1450 U/mg (UV)
- specific activity U/mg (UV); Sample 11, 60 % Q97R (FRETS-VWF73 substrate): 1580 U/mg (UV)
- specific activity U/mg (UV); Sample 12, 60 % Q97R (FRETS-VWF73 substrate): 1620 U/mg (UV)
- specific activity U/mg (UV); Sample 13, 71 % Q97R (FRETS-VWF73 substrate): 1970 U/mg (UV)
- specific activity U/mg (UV); Sample 14, 59 % Q97R (FRETS-VWF73 substrate): 1390 U/mg (UV)
- specific activity U/mg (UV); Sample 15, 52 % Q97R (FRETS-VWF73 substrate): 1330 U/mg (UV)
- specific activity U/mg (UV); Sample 16, 57 % Q97R (FRETS-VWF73 substrate): 1410 U/mg (UV)
- specific activity U/mg (UV); Sample 17, 61 % Q97R (FRETS-VWF73 substrate): 1380 U/mg (UV)
- specific activity U/mg (UV); Sample 18, 63 % Q97R (FRETS-VWF73 substrate): 1440 U/mg (UV)
- specific activity U/mg (UV); Sample 19, 54 % Q97R (FRETS-VWF73 substrate): 1660 U/mg (UV)
- specific activity U/mg (UV); Sample 20, 64 % Q97R (FRETS-VWF73 substrate): 1700 U/mg (UV)
- specific activity U/mg (UV); Sample 21, 64 % Q97R (FRETS-VWF73 substrate): 1690 U/mg (UV)
- specific activity U/mg (UV); Sample 22, 66 % Q97R (FRETS-VWF73 substrate): 1620 U/mg (UV)
- specific activity U/mg (UV); Sample 23, 61 % Q97R (FRETS-VWF73 substrate): 1540 U/mg (UV)
- specific activity U/mg (UV); Sample 24, 62 % Q97R (FRETS-VWF73 substrate): 1510 U/mg (UV)
- specific activity U/mg (UV); Sample 25, 61 % Q97R (FRETS-VWF73 substrate): 1530 U/mg (UV)
- specific activity U/mg (UV); Sample 26, 61 % Q97R (FRETS-VWF73 substrate): 1760 U/mg (UV)
- specific activity U/mg (UV); Sample 27, 59 % Q97R (FRETS-VWF73 substrate): 1860 U/mg (UV)
- specific activity U/mg (UV); Sample 28, 60 % Q97R (FRETS-VWF73 substrate): 1750 U/mg (UV)
- specific activity U/mg (UV); Sample 29, 55 % Q97R (FRETS-VWF73 substrate): 1730 U/mg (UV)
- specific activity U/mg (UV); Sample 30, 60 % Q97R (FRETS-VWF73 substrate): 1850 U/mg (UV)
- specific activity U/mg (UV); Sample 31, 64 % Q97R (FRETS-VWF73 substrate): 1800 U/mg (UV)
- specific activity U/mg (UV); Sample 32, 60 % Q97R (FRETS-VWF73 substrate): 1750 U/mg (UV)
- specific activity U/mg (UV); Sample 33, 65 % Q97R (FRETS-VWF73 substrate): 1620 U/mg (UV)
- specific activity U/mg (UV); Sample 34, 61 % Q97R (FRETS-VWF73 substrate): 1720 U/mg (UV)
- specific activity U/mg (UV); Sample 35, 72 % Q97R (FRETS-VWF73 substrate): 1650 U/mg (UV)

B1: Q97R ADAMTS13 variant (protein)
chain: AAGGILHLELLVAVGPDVFQAHREDTERYVLTNLNIGAELLRDPSLGAQFRVHLVKMVILTEPEGAPNITANLTSSLLSVCGWSQTINPEDDTDPGHADLVLYITRFDLELPDGNRQVRGVTQLGGACSPTWSCLITEDTGFDLGVTIAHEIGHSFGLEHDGAPGSGCGPSGHVMASDGAAPRAGLAWSPCSRRQLLSLLSAGRARCVWDPPRPQPGSAGHPPDAQPGLYYSANEQCRVAFGPKAVACTFAREHLDMCQALSCHTDPLDQSSCSRLLVPLLDGTECGVEKWCSKGRCRSLVELTPIAAVHGRWSSWGPRSPCSRSCGGGVVTRRRQCNNPRPAFGGRACVGADLQAEMCNTQACEKTQLEFMSQQCARTDGQPLRSSPGGASFYHWGAAVPHSQGDALCRHMCRAIGESFIMKRGDSFLDGTRCMPSGPREDGTLSLCVSGSCRTFGCDGRMDSQQVWDRCQVCGGDNSTCSPRKGSFTAGRAREYVTFLTVTPNLTSVYIANHRPLFTHLAVRIGGRYVVAGKMSISPNTTYPSLLEDGRVEYRVALTEDRLPRLEEIRIWGPLQEDADIQVYRRYGEEYGNLTRPDITFTYFQPKPRQAWVWAAVRGPCSVSCGAGLRWVNYSCLDQARKELVETVQCQGSQQPPAWPEACVLEPCPPYWAVGDFGPCSASCGGGLRERPVRCVEAQGSLLKTLPPARCRAGAQQPAVALETCNPQPCPARWEVSEPSSCTSAGGAGLALENETCVPGADGLEAPVTEGPGSVDEKLPAPEPCVGMSCPPGWGHLDATSAGEKAPSPWGSIRTGAQAAHVWTPAAGSCSVSCGRGLMELRFLCMDSALRVPVQEELCGLASKPGSRREVCQAVPCPARWQYKLAACSVSCGRGVVRRILYCARAHGEDDGEEILLDTQCQGLPRPEPQEACSLEPCPPRWKVMSLGPCSASCGLGTARRSVACVQLDQGQDVEVDEAACAALVRPEASVPCLIADCTYRWHVGTWMECSVSCGDGIQRRRDTCLGPQAQAPVPADFCQHLPKPVTVRGCWAGPCVGQGTPSLVPHEEAAAPGRTTATPAGASLEWSQARGLLFSPAPQPRRLLPGPQENSVQSSACGRQHLEPTGTIDMRGPGQADCAVAIGRPLGEVVTLRVLESSLNCSAGDMLLLWGRLTWRKMCRKLLDMTFSSKTNTLVVRQRCGRPGGGVLLRYGSQLAPETFYRECDMQLFGPWGEIVSPSLSPATSNAGGCRLFINVAPHARIAIHALATNMGAGTEGANASYILIRDTHSLRTTAFHGQQVLYWESESSQAEMEFSEGFLKAQASLRGQYWTLQSWVPEMQDPQSWKGKEGT
- Degradation of full-length rVWF under denaturing conditions (VWF multimer analysis) [3]: Comparable
- Specific rADAMTS13 activity (activity per total protein by UV) [4]: 1740 IU/mg
- rADAMTS13 Activity (FRETS VWF73) [4]: 1370 IU/mL
- specific activity (FRETS U/mg UV protein) against share of Q97R, regression [4]: suggesting that the Q^97R rADAMTS13 variant has similar activity to that of wildtype ADAMTS13
